From paper PMC9028814

Molecular target: Acid-solubilized type I bovine collagen (bovine) (UniProt P02453)
Assay: SPR

UniProt P02453, sequence (P02453 162-1217, chain 1 of 2): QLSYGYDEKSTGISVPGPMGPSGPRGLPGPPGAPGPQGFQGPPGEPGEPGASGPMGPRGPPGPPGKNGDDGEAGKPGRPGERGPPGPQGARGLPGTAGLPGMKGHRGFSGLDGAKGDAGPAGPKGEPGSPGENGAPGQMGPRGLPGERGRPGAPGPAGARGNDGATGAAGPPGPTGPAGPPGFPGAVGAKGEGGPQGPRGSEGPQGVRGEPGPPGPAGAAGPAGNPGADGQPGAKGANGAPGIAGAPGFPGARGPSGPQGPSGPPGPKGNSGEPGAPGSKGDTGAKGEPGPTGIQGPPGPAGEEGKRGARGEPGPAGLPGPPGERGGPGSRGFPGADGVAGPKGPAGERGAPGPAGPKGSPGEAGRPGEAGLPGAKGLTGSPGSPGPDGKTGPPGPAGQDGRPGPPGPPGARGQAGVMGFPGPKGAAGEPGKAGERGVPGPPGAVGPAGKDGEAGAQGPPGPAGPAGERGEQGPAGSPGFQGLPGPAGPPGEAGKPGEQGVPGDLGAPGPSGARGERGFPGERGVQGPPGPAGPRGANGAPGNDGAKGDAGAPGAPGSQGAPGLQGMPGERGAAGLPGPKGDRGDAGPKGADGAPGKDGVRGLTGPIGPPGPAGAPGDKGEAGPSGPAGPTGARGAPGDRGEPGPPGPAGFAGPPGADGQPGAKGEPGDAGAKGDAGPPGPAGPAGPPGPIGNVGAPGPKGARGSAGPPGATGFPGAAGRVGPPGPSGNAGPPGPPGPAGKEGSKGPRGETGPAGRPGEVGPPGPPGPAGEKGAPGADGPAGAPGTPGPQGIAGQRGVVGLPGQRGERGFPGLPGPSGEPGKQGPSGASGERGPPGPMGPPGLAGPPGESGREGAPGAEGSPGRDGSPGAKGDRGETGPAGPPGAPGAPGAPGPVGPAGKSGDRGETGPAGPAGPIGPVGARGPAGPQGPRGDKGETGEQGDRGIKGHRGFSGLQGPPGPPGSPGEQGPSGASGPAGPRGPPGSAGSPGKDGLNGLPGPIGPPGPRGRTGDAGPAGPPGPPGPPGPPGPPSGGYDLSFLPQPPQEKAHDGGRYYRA
UniProt P02453, sequence (P02465 80-1117, chain 2 of 2, further chain): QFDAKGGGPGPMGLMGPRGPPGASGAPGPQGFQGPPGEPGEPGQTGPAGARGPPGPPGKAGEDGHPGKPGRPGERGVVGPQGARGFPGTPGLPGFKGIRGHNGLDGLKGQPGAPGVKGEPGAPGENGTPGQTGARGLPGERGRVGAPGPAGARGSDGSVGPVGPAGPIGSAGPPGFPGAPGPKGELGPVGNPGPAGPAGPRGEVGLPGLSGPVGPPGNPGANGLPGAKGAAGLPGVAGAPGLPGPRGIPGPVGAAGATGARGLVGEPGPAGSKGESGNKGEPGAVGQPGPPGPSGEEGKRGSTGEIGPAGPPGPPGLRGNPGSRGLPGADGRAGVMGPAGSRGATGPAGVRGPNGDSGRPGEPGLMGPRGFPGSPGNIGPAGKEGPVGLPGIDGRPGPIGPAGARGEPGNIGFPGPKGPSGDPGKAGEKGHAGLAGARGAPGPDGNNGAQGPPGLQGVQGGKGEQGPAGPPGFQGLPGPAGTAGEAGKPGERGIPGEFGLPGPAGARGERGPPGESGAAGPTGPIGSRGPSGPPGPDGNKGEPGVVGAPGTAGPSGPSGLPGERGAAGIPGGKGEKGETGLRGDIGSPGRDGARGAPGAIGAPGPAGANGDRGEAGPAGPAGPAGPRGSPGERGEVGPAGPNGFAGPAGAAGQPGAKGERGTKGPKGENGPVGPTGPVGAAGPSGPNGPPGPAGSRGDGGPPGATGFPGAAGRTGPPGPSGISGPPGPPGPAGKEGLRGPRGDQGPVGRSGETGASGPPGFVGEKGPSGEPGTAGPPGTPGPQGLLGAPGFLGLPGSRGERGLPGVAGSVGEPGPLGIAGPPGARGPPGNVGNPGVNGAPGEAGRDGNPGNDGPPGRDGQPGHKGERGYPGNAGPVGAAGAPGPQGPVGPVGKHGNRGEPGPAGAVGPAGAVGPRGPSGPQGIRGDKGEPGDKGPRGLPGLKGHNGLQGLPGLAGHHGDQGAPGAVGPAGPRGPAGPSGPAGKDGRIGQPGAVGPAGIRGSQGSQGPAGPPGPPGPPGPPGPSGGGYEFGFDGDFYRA

Row | koff [s⁻¹] | kon [M⁻¹ s⁻¹] | Substance
1 | 0.00073 | – | Human plasma von Willebrand factor (from UniProt P04275 764-2813) (natural protein)
2 | 0.000932 | 2.36e+06 | Recombinant wild type von Willebrand factor (from UniProt P04275 764-2813) (natural protein)
